Patent publication US20240327471A1, “IL-10 INDUCING POLYPEPTIDES AND USES THEREOF” (ENTEROME S.A., priority 2021, published 2024)

B1: ID3166: microbiota protein, 121 amino acids, 14 kDa, SEQ ID NO: 2 (protein)
chain: AFLFTSTGVPKKAAEAAFFLYLNKGTKKGSRSCFFIYLDRGTKKGSRSCFFYLPRQGYQKGSRGCFFIYLDRGTKKGSRGCFFIYLDCEKRAGNVCIRKCRGRYLHKKTPRRYRNAEATCS
modifications: ID3166

How the values were obtained:
[1] = tested on: monocytes; assay: IL-10 secretion from monocytes, NAT_29 sequence variants, co-stimulated with LPS (AlphaLISA); format: cell-based, human; settings: 1 μM; LPS 100 ng/ml; 24 h; monocytes from six donors
Procedure: In order to investigate the impact of different sequence variations of NAT_29, monocytes from six donors were obtained as described in Example 3 and stimulated with 1 μM NAT_29 polypeptide (SEQ ID NO: 1) or a sequence variant thereof containing eight mutations (NAT_38; SEQ ID NO: 9), co-stimulated with 100 ng/ml LPS (NAT_38 comparison) from E. coli O111: B4 (InvivoGen, tlrl-eblps) and placed in humidified CO2 incubator at 5% CO2/37° C. for 24 h. IL-10 secretion was measured at 24 hours by AlphaLISA® on cell supernatants according to the supplier's protocol and read on an Envision plate reader (Perkin Elmer).
For comparison with NAT_29 (SEQ ID NO: 1), a polypeptide differing from the NAT_29 sequence by eight (8) amino acid positions was chosen (NAT_38; SEQ ID NO: 9). Namely, in SEQ ID NO: 9 • (i) 110 of SEQ ID NO: 1 is deleted, • (ii) D13 in SEQ ID NO: 1 is substituted with P (D13P), • (iii) a Q is added between R14 and G15 of SEQ ID NO: 1, • (iv) T16 in SEQ ID NO: 1 is substituted with Y (T16Y), • (v) K17 in SEQ ID NO: 1 is substituted with Q (K17Q), • (vi) S22 in SEQ ID NO: 1 is substituted with G (S22G), • (vii) an I is added between F25 and Y26 of SEQ ID NO: 1, and • (viii) P28 of SEQ ID NO: 1 is deleted.

[2] = tested on: human PBMCs; assay: Dose-response of purified microbiota proteins, IL-10 secretion from total PBMCs (AlphaLISA); format: cell-based; settings: 24 hours
Procedure: Before testing, the proteins were purified. In view thereof, CD14 depletion of PBMCs was not required, since the background induced by the residual contaminants present in the purified proteins is very low. Therefore, the cellular assays of Example 2 to characterize the purified proteins were performed on total PBMCs.
The selected proteins, were tested at concentrations of 0.5, 0.25, 0.1 and 0.025 μM (final concentration) on PBMCs. Cells were seeded in 384 well plates at 72,000 cells/well in a final volume of […] and stimulated with either the purified proteins (10% vol/vol) or the relative controls (positive and negative) for 24 hours in a humidified 5% CO2 atmosphere at 37° C. Samples were tested in duplicate on at least two different PBMCs donors. All the dilutions were made in PBS.
Secretion of IL-10 was measured by AlphaLISA and compared to those of PBS (negative control) and PHA at 10 μg/ml (positive control), essentially as described above.

[3] = tested on: CD14 depleted human peripheral blood mononuclear cells (PBMCs); assay: IL-10 screening of microbiota protein library on CD14-depleted PBMCs (AlphaLISA); format: cell-based; settings: second round of cell-free synthesis, 72 hours
Procedure: IL-10 screening of the microbiota protein library was performed on CD14 depleted human peripheral blood mononuclear cells (PBMCs). This cellular model was chosen to reduce the background due to cell wall components and other bacterial contaminants possibly present in the lysate of the Cell Free synthesis kit on the synthesised (but not purified) proteins.
PBMCs were isolated from buffy coats as follows: 80 ml PBS were added to 50 ml blood; 4 SepMate™-50 IVD tubes (Stemcell Technologies, Vancouver, Canada) were filled with 15 mL of Ficoll® (Ficoll® Paque Plus; Sigma-Aldrich, St. Louis, USA) per donor, then 30 ml of PBS-diluted blood were gently added. Samples were centrifuged for 20 min at 1200 g at room temperature and washed three times with PBS. To lyse the red blood cells, pellets were resuspended in Red Blood Cells Lysis buffer 1X (Miltenyi Biotec, Bergisch Gladbach, Germany) and incubated for 10 min at room temperature. Cells were then washed with MACS buffer and counted.
PBMC depletion was performed using the CD14 Microbeads kit (Miltenyi Biotec, Bergisch Gladbach, Germany) according to the supplier's protocol. […]
IL-10 secretion was measured by AlphaLISA® (IL10 (human) AlphaLISA Detection Kit; PerkinElmer, Waltham MA, USA) on the undiluted supernatants according to the supplier's protocol. Results were expressed as AlphaLISA® signal (Counts). […]

Molecule | IL-10 secretagogue activity compared with NAT_29 [1] | IL-10 secretion from PBMCs compared with PHA (positive control) ([2]; 0.5, 0.25, 0.1 and 0.025 μM, PHA at 10 μg/ml) | IL-10 secretion from PBMCs at the lowest dose tested ([2]; lowest dose 0.025 μM) | IL-10 secretion from human PBMCs [3]
KKGSRSCFFYLPRQGYQKGSRGCFFIYL (NAT_38) | IL-10 secretagogue activity was maintained | – | – | –
B1 | – | even more effective | very high effectivity even at the lowest dose tested | able to stimulate IL-10 secretion from human PBMCs
